From US20110263014

Experiments:
[1] = biological target: in vitro-translated human Nanog (hNanog), Q9H9S0
[2] = biological target: T1, mouse Nanog (mNanog), Q80Z64
T1 chain: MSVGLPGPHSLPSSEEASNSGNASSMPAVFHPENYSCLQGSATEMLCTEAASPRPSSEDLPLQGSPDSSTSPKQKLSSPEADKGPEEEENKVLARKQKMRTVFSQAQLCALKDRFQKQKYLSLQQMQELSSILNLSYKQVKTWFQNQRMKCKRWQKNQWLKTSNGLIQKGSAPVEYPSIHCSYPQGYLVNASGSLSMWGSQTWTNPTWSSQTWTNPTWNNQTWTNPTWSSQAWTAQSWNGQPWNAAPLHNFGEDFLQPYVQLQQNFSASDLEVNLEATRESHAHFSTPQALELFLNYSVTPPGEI

Chain of in vitro-translated human Nanog (hNanog), Q9H9S0 (Q9H9S0 whole entry): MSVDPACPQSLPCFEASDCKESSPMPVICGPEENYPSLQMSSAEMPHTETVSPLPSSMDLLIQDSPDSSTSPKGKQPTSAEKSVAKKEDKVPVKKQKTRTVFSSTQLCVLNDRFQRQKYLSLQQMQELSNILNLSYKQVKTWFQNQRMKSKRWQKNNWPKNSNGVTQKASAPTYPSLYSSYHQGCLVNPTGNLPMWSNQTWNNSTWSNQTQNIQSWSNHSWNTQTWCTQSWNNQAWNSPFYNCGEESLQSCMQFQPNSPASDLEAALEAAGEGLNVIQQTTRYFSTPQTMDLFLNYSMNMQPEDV

B1: recombinant active caspase-3 (protein)
chain: SGISLDNSYKMDYPEMGLCIIINNKNFHKSTGMTSRSGTDVDAANLRETFRNLKYEVRNKNDLTREEIVELMRDVSKEDHSKRSSFVCVLLSHGEEGIIFGTNGPVDLKKITNFFRGDRCRSLTGKPKLFIIQACRGTELDCGIETDSGVDDDMACHKIPVEADFLYAYSTAPGYYSWRNSKDGSWFIQSLCAMLKQYADKLEFMHILTRVNRKVATEFESFSFDATFHAKKQIPCIVSMLTKELYFYH
For B1, the “in vitro caspase-3 cleavage assay” value (Sox2) was “remained uncleaved (data not shown)”, the “in vitro caspase-3 cleavage assay” value [1] was “Caspase-3 cleaved human (h) Nanog in vitro” and the “in vitro caspase-3 cleavage assay” value (Oct4) was “remained uncleaved (data not shown)”. The “cleavage of immunoprecipitated mNanog by recombinant caspase” value [2] was “Only caspase-9 effectively cleaved mNanog into a 27 kDa fragment” and the “in vitro caspase-3 cleavage assay” value [2] was “very little or no cleavage of recombinant mNanog by caspase-3 was observed”.
